Data on one molecule can be found in patent US12428627B2, “Mutant p-hydroxyphenylpyruvate dioxygenase, and coding nucleic acid and use thereof” (Qingdao Kingagroot Chemical Compound Co., Ltd., priority 2018, dated 2025).

Experiment [1] relates to Huaidao No. 5 rice seedlings. Description: Gene-edited rice seedlings (base editing / homologous replacement of HPPD gene) on medium containing tembotrione. It is filed as in vivo. To be noted: medium containing 0.4 μM tembotrione. The method, then:
The calli of Huaidao No. 5 (at least 3000 callis) were infected according to the aforesaid method for infecting rice callis with Agrobacterium. After being infected with Agrobacterium, the infected calli were transferred to a 50 mg/L hyg screening medium for screening culture. After three rounds (15 days×3) of screening, the blond calli with good growth state were picked out to differentiate in a differentiation medium, and 0.2 μM tembotrione was added during the differentiation process for screening. After for 3-4 weeks, about 1,500 seedlings with around 1 cm were obtained. As to the about 1,500 differentiated seedlings, the vast majority of which had been bleached, and only 4 seedlings remained normal green. The 4 seedlings were transplanted to a rooting medium containing 0.4 μM tembotrione and cultivated for 2 weeks, wherein two seedlings had been bleached, while the other two seedlings remained green (FIG. 14A). A small number of leaves were used to extract genomic DNA by CTAB method. PCR was carried out by using the primers oshppd54F: TTCCACCACGTCGAGCTC and Oshppd356R: […]. The amplified product was detected by 1% agarose electrophoresis and sequenced by Sanger sequencing method. […]

Experiment [2] relates to rice HPPD (OsHPPD). Description: Color reaction of recombinant E. coli expressing wild-type or mutant rice HPPD, cultured in 96-well plate in medium containing an HPPD-inhibiting herbicide and tyrosine. It is filed as cell-based, Oryza sativa. As to conditions: compound 101. The essentials: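 E. coli clones expressing wild-type or single-site-mutant rice HPPD (residues 51 onward, NNK saturation mutagenesis, pET-44a) grown 24 h at 28 °C in 2×YT with 1 g/L L-Tyr, 0.1 mM IPTG, 0.01 mM MnCl2 and herbicide at 1–20 μM final (tembotrione 1.7 μM, mesotrione 10 μM). Brown homogentisate colour scored semi-quantitatively versus wild type.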

B1: H141R/G342D/D370N: three-site mutant rice HPPD (OsHPPD3M) (protein, listed as Oryza sativa)
chain: MPPTPTPTATTGAVSAAAAAGENAGFRLVGHRRFVRANPRSDRFQALAFHHVELWCADAASAAGRFAFALGAPLAARSDLSTGNSAHASLLLRSASVAFLFTAPYGGDHGVGADAATTASIPSFSPGAARRFAADHGLAVRAVALRVADAADAFRASVAAGARPAFQPADLGGGFGLAEVELYGDVVLRFVSHPDGADAPFLPGFEGVSNPGAVDYGLRRFDHVVGNVPELAPVAAYISGFTGFHEFAEFTAEDVGTAESGLNSVVLANNAETVLLPLNEPVHGTKRRSQIQTYLDHHGGPGVQHIALASDDVLGTLREMRARSAMGGFEFLAPPPPNYYDDVRRRAGDVLSEEQINECQELGVLVDRDNQGVLLQIFTKPVGDRPTFFLEMIQRIGCMEKDESGQEYQKGGCGGFGKGNFSELFKSIEEYEKSLEAKQAPTVQGS
modifications: The amino acid sequence of Wild-Type rice HPPD protein (OsHPPD _WT)
As to B1, the “state of successfully edited seedlings” value in experiment [1] is reported as “remain green”. The “concentration of 101 required to have no significant color reaction” value in experiment [2] is 120 µM.
